Key:
[1] = molecular target: human KIR3DL2 (CD158k), wild type, at the cell surface (human) (UniProt P43630); experiment: flow cytometry, concentration-response binding of PE-labelled IPH4102 on HuT78 Sezary cell line
[2] = molecular target: human KIR3DL2 (CD158k), wild type, at the cell surface (human) (UniProt P43630); experiment: flow cytometry, concentration-response binding of PE-labelled IPH4102 on COU-L Sezary cell line
[3] = molecular target: recombinant human KIR3DL2 protein (human) (UniProt P43630); experiment: SPR (Biacore), mean off-rate for bivalent binding converted to per hour
[4] = molecular target: recombinant human KIR3DL2 protein (human) (UniProt P43630); experiment: SPR (Biacore), bivalent binding, N = 2
[5] = molecular target: human KIR3DL2 (CD158k), wild type, at the cell surface (human) (UniProt P43630); experiment: flow cytometry, concentration-response binding of PE-labelled IPH4102 on primary Sezary tumor cells
[6] = molecular target: recombinant human KIR3DL2 protein (human) (UniProt P43630); experiment: SPR (Biacore), bivalent binding, N = 1
[7] = molecular target: human KIR3DL2 (CD158k), wild type, at the cell surface (human) (UniProt P43630); experiment: PK/PD model parameter 'Binding affinity', set from the filing's flow cytometry titration of IPH4102 on KIR3DL2-positive cells (EC50 about 0.07 ug/mL); not a separate kinetic measurement
[8] = molecular target: recombinant human KIR3DL2 protein (human) (UniProt P43630); experiment: SPR (Biacore), average bivalent binding affinity to recombinant KIR3DL2
[9] = molecular target: human KIR3DL2 (CD158k), wild type, at the cell surface (human) (UniProt P43630); experiment: cell-based or functional assay
[10] = molecular target: recombinant human KIR3DL2 protein (human) (UniProt P43630); experiment: SPR (Biacore), bivalent binding, N = 3
[11] = molecular target: recombinant human KIR3DL2 protein (human) (UniProt P43630); experiment: SPR (Biacore), bivalent binding, mean of three

Sequence of human KIR3DL2 (CD158k), wild type, at the cell surface (human) (P43630 22-455 E158D): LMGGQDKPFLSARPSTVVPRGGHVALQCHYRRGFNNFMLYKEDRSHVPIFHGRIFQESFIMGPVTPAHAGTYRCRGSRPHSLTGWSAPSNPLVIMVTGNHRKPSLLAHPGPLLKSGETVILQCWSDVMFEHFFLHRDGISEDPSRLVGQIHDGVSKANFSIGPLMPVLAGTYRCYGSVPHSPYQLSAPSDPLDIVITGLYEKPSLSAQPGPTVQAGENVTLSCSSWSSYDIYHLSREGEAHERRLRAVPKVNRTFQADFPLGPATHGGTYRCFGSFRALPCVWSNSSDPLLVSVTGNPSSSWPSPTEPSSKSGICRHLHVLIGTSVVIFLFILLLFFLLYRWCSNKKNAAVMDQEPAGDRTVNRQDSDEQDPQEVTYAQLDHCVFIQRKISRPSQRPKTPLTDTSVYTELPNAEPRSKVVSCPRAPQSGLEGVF

EC50 [1]: 0.06 µg/mL
EC50 [2]: 0.087 µg/mL
koff [3]: 0.00014 s⁻¹
Kd [4]: 0.131 nM
koff [4]: 0.000125 s⁻¹
kon [4]: 953000 M⁻¹ s⁻¹
EC50 [5]: 0.07 µg/mL
Kd [6]: 0.162 nM
koff [6]: 0.000156 s⁻¹
kon [6]: 968000 M⁻¹ s⁻¹
Kd [7]: 0.07 µg/mL
Kd [8]: 0.0219 µg/mL
EC50 in 51Cr-release assay HuT 78 tumor lysis by PBMC from healthy volunteers [9]: 0.045 µg/mL
median EC10 in the 51Cr release assay (HuT78 tumor cell lysis by healthy donors' PBMC, NK cell lytic capacity) [9]: 0.002 µg/mL
Kd [10]: 0.144 nM
koff [10]: 0.000139 s⁻¹
kon [10]: 965000 M⁻¹ s⁻¹
Kd [11]: 0.146 nM
koff [11]: 0.00014 s⁻¹
kon [11]: 962000 M⁻¹ s⁻¹
B1: IPH4102 (humanized 2B12 mAb, full-length human IgG1 anti-KIR3DL2 antibody) (antibody, from a related filing, V domains shown)
VH: QIQLVQSGSELKKPGASVKVSCKASGYTFTTAGMQWVRQAPGQGLEWIGWINSHSGVPKYAEDFKGRFVFSLDTSVSTAYLQISSLKAEDTAVYFCARGGDEGVMDYWGQGTTVTVSS
VL: DIQMTQSPSFLSASVGDRVTITCKASQDVSTAVAWYQQKPGQPPKLLIYWTSTRHTGVPDRFSGSGSGTDYTLTISSLQAEDVAVYYCQQHYSTPWTFGGGTKVEIK

From patent publication US20210087270A1
